Biological target: recombinant human IL-1β (human) (UniProt P01584)
Assay: cell-based or functional assay

Chain of UniProt P01584 (P01584 117-269 limits assumed): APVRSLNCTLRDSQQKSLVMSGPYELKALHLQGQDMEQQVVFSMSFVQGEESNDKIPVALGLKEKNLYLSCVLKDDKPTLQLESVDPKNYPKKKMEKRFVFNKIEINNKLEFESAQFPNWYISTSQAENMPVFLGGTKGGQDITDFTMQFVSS

IC50 pM (HEK293/NFκB-luciferase bioassay, IL-1β at 4 pM) [pM] | Substance
100 | hIL-1RAcp.hIL-1R1.TG.hFc.ARA.CTP.TG.hFc (Fc fusion)
3400 | hIL-1RAcp.hIL-1R1.myc.myc.His6 (receptor)
23 | hIL-1RI.TG.hFc.ARA.CTP.TG.hFc.ARA.hIL-1RAcP (Fc fusion)

— patent US20070087411A1
